Results published in patent US6403764.

Legend:
human IGFBP-1 [1] = target: T1, human IGFBP-1 (human, UniProt P08833 26-259); assay: competitive phage ELISA; IC50mut/IC50 G1S-A70V
T1 construct: mature; Secreted recombinant protein; also called IGFBP-I
T1 sequence (looked up): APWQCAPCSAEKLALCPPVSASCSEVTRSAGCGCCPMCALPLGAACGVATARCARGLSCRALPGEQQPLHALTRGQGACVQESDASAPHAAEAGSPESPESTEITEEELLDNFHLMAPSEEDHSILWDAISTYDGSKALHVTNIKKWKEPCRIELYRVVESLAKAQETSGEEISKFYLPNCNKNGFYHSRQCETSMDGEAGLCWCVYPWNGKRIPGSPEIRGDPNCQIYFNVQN

[2] = target: T2, recombinant human IGFBP-3 (human, UniProt P17936 28-291); assay: competitive phage ELISA; IC50mut/IC50 G1S-A70V
T2 construct: mature; Secreted recombinant protein

human IGFBP-1 [3] = target: T1, human IGFBP-1; assay: phage ELISA value repeated from Table I; IC50mut/IC50 G1S-A70V
[4] = target: T2, recombinant human IGFBP-3; assay: as above
human IGFBP-1 [5] = target: T1, human IGFBP-1; assay: competitive phage ELISA
Method: Phage particles were harvested and resuspended in PBS buffer as described in Lowman, H. B., "Phage Display of Peptide Libraries on Protein Scaffolds," in Cabilly, S. (ed.), *Combinatorial Peptide Library Protocols* (Humana Press Inc.: Totowa, N.J., 1998), pp. 249–264. Then phage concentrations were normalized to yield a maximal ELISA signal of 0.2–0.4 for each mutant (Lowman, in Cabilly, S. (ed.), supra). Threefold serial dilutions of soluble competitor were prepared on non-absorbent microtiter plates (Nunc, F, 96 wells) with binding buffer (0.5% TWEEN™ 20/PBS) containing phage at the previously-determined concentrations. The dilution range of competitor protein extended over six orders of magnitude, starting at 5 µM for IGFBP-1 and 500 nM for IGFBP-3. After blocking, the plates containing immobilized target were washed with 0.05% TWEEN™/PBS buffer and subsequently incubated with 80 µl/well of the premixed phage-competitor solutions for 1 hour at room temperature. […] Numbers in Table I represent mean±standard deviation of individually assessed $IC50$ values.
At least two different clones of every mutant were tested.

[6] = target: T3, human IGFBP-1 (human), P08833; assay: competitive phage ELISA; IC50mut/IC50 G1S-A70V; conditions: remark: other sources report otherwise
T3 chain: T1 sequence (looked up)

[7] = target: T3, human IGFBP-1 (human), P08833; assay: phage ELISA value repeated from Table I; IC50mut/IC50 G1S-A70V; conditions: remark: other sources report otherwise
[8] = target: T2, recombinant human IGFBP-3; assay: competitive phage ELISA, IGFBP-3-coated wells, soluble IGFBP-3 competitor (FIG. 3B)
Method: Phage particles were harvested and resuspended in PBS buffer as described in Lowman, H. B., "Phage Display of Peptide Libraries on Protein Scaffolds," in Cabilly, S. (ed.), *Combinatorial Peptide Library Protocols* (Humana Press Inc.: Totowa, N.J., 1998), pp. 249–264. Then phage concentrations were normalized to yield a maximal ELISA signal of 0.2–0.4 for each mutant (Lowman, in Cabilly, S. (ed.), supra). Threefold serial dilutions of soluble competitor were prepared on non-absorbent microtiter plates (Nunc, F, 96 wells) with binding buffer (0.5% TWEEN™ 20/PBS) containing phage at the previously-determined concentrations. The dilution range of competitor protein extended over six orders of magnitude, starting at 5 µM for IGFBP-1 and 500 nM for IGFBP-3.

T2 sequence (P17936 28-291): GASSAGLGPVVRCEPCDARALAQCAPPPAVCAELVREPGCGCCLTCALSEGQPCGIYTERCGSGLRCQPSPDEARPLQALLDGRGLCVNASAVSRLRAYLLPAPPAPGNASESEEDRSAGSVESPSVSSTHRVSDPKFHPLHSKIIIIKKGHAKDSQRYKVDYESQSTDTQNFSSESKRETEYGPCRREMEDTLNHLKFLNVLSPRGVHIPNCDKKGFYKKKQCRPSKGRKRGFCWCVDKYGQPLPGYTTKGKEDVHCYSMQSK

“IGF-I G7A displayed on phage (from UniProt P69168 267-424) (ligand)” showed a relative IC50 (human IGFBP-1 [1]) greater than 100 and a relative IC50 [2] of 6.1.

Molecule “IGF-I G1S-A70V displayed on phage (from UniProt P69168 267-424) (ligand)” has a relative IC50 (human IGFBP-1 [1]) of 1, a relative IC50 [2] of 1 and a relative IC50 (human IGFBP-1 [3]) of 1. The relative IC50 [4] was 1.

Work on “IGF-I Y31A displayed on phage (from UniProt P69168 267-424) (ligand)” yielded a relative IC50 (human IGFBP-1 [1]) of 0.8 and a relative IC50 [2] of 1.

Molecule “Ala(1-3)-IGF-I displayed on phage (from UniProt P69168 267-424) (ligand)” has an IC50 (human IGFBP-1 [5]) of 90.4 nM, a relative IC50 (human IGFBP-1 [1]) of 11 and a relative IC50 [2] of 1.5.

Molecule “IGF-I T29A displayed on phage (from UniProt P69168 267-424) (ligand)” has a relative IC50 (human IGFBP-1 [1]) of 0.9 and a relative IC50 [2] of 1.6.

For “IGF-I S33A displayed on phage (from UniProt P69168 267-424) (ligand)”, the relative IC50 (human IGFBP-1 [1]) was 1.1 and the relative IC50 [2] was 1.3.

“IGF-I P28A displayed on phage (from UniProt P69168 267-424) (ligand)” was tested, and the relative IC50 (human IGFBP-1 [1]) was 1.1 and the relative IC50 [2] was 1.9.

With “IGF-I G30A displayed on phage (from UniProt P69168 267-424) (ligand)” the relative IC50 (human IGFBP-1 [1]) was 0.9 and the relative IC50 [2] was 0.8.

Work on “IGF-I G32A displayed on phage (from UniProt P69168 267-424) (ligand)” yielded a relative IC50 (human IGFBP-1 [1]) of 1.3 and a relative IC50 [2] of 1.

Molecule “IGF-I S34A displayed on phage (from UniProt P69168 267-424) (ligand)” has a relative IC50 (human IGFBP-1 [1]) of 1.2 and a relative IC50 [2] of 2.2.

B1: IGF-I F49A displayed on phage (ligand)
chain: SPETLCGAELVDALQFVCGDRGFYFNKPTGYGSSSRRAPQTGIVDECCARSCDLRRLEMYCAPLKPAKSV
notes: On phage; G1S-A70V template; also called IGF-F49A phage; not shown: Display partner: M13 gene III protein fragment (residues 249-406, mature count) and the junction to it
With B1 the relative IC50 [6] was greater than 100, the relative IC50 [7] was greater than 100 and the “ratio of IC50 against G1S-A70V phage” value [8] was less than 4 fold.
